In patent US20050221488 one finds activity (% DSB frequency) data, which are given here for 1 substance.

The series relates to Spo11 (Saccharomyces cerevisiae). Put plainly: cell_activity. Particulars: wild-type Spo11 without Gal4BD; DSBs barely detectable.

For GAL2 promoter UASGAL sites, the activity (% DSB frequency) was below 0.6.
